The term EC50 denotes the concentration needed to bring the measured effect to its halfway point. A high value points to a less potent agent.

In EP3922644A2 (The Texas A&M University System, dated 2021) one finds EC50 and Kd data, which are given here for 8 molecules.

The target in experiment [1] is human fibrinogen (human) (UniProt P02671). Description: ELISA, GST-tagged Coa fragment on immobilized Fg. For orientation: In an ELISA, binding on a coated surface is turned into a signal by an enzyme label.
Experiment [2] has the same target. Put plainly: apparent affinity, ELISA, GST-tagged Coa fragment on immobilized Fg.
Experiment [3] shares this target. Description: apparent KD, solid phase binding assay, DC2-Fg coated 1 µg/well, Fg titrated 0-0.3 µM.
For experiment [4] the target is unchanged. Description: apparent KD, solid phase binding assay, Efb coated 1 µg/well, Fg titrated 0-0.3 µM.
Experiment [5] concerns the target Fibrinogen-D fragment (human, plasmin digest) (human) (UniProt P02671). Description: ITC (VP-ITC), peptide titrated into 10 µM Fg-D, one-site model, 27°C.
The target of experiment [6] is T1, Fibrinogen-D fragment (human, plasmin digest) (human, UniProt P02671 124-225; P02675 164-491; P02679 89-437).
T1 construct: domain: D fragment; Made by digesting human Fg with plasmin for 4 h and gel filtration; also called Fg-D; Fg-D fragment
T1 sequence 1: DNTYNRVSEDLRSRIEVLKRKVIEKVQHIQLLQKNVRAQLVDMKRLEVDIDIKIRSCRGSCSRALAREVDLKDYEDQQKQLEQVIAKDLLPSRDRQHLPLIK
T1 sequence 2: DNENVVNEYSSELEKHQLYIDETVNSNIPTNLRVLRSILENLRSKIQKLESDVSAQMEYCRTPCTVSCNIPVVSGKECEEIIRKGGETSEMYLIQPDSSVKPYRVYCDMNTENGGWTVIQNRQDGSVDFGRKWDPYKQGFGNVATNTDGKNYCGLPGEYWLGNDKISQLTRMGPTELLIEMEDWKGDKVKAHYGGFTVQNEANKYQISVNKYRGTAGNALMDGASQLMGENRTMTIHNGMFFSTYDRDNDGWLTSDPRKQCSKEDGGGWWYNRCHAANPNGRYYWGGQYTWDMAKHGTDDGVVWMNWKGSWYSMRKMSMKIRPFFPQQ
T1 sequence 3: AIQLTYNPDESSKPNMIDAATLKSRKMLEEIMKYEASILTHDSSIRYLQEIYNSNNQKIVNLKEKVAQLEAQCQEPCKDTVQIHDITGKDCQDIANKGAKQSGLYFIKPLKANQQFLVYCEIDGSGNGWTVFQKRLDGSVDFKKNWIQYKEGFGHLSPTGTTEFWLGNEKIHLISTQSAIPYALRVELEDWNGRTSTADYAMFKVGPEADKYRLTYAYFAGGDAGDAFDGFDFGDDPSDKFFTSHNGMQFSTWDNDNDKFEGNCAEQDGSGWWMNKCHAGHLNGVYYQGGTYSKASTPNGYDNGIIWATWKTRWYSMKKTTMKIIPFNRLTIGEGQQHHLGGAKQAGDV
The description is as above.

Experiment [7] addresses T2, Efb-N30-105, His-tagged recombinant protein (Staphylococcus aureus strain Newman, UniProt A6QG59 30-105).
T2 construct: range 30-105; not shown: polyhistidine tag (detected with anti-HIS-tag antibody)
T2 sequence (looked up): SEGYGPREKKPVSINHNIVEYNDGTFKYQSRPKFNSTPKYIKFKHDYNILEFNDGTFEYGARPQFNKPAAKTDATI
Put plainly: apparent Kd from half maximum binding in ELISA.

Experiment [8] deals with Efb-A30-67, GST-tagged recombinant protein (Staphylococcus aureus strain Newman, UniProt P08515 1-218 = GST; A6QG59 30-67). Description: apparent Kd from half maximum binding in ELISA.
Experiment [9] has as its target T3, rEfb-O (Efb 68-98), GST-tagged recombinant protein (Staphylococcus aureus strain Newman).
T3 construct: also called Efb-O68-98; not shown: N-terminal GST tag from pGEX-5x-1
T3 chain: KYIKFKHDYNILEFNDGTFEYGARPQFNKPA
Put plainly: apparent Kd from half maximum binding in ELISA.

In the case of “Coa-C (Coa 311-636), GST-tagged (from UniProt P08515 1-218)”, the EC50 with human fibrinogen (human) [1] came to 7.5 nM. Consider “Coa-R (Coa 506-636), GST-tagged (from UniProt P08515 1-218)”, for which, in the experiment with human fibrinogen (human) [2], the Kd came to 0.8 nM.

For “DC2-Fg, DC2 with the fibrinogen binding motif Efb-O inserted after Gln 301 (designed binder)”, the Kd with human fibrinogen (human) [3] worked out at 10 nM. “Efb as coated in the solid phase binding assay of the DC proteins (from UniProt A6QG59 30-165)”: in the experiment with human fibrinogen (human) [4], the Kd was determined as 1 nM. Molecule sCoa-RI3, synthetic peptide Coa 502-528 yielded a Kd in experiment [5] of 124 nM. In turn, sCoa-RV1, synthetic peptide Coa 610-636 showed a Kd in experiment [5] of 139 nM.

With ETNAYNVTTHANGQVSYGARPTYKKPS (also called peptide CoaRI) [sCoa-RI, synthetic peptide Coa 506-532], the Kd in experiment [6] is 88 nM.

B1: FBE5-F11 (Fc fusion)
VH: QVQLQESGGGVVQPGRSLRLSCAASGFTFSSYGMHWVRQAPGKGLEWVAVISYDGSNKYYADSVKGRFTISRDNSKNTLYLQMNSLRAEDTAVYYCAKDLASSGFDYWGQGTLVTVSS
VL: QSVLTQPPSVSAAPGQKVTISCSGSSSNIGNNYVSWYQQLPGTAPKLLIYDNNKRPSGIPDRFSGSKSGTSATLGITGLQTGDEADYYCGTWDSSLSAEVFGGGTKLTVL
notes: Tested as scFv-Fc (human scFv from HAL9/HAL10 recloned into pCSE2.6-hIgG1-Fc-XP, made in HEK293-6E)
Turning to B1, the Kd in experiment [7], in [8] and in [9] was about 0.1 nM each time.
